{
  "source": "paper PMC7969954",
  "about": "“Pol α-primase dependent nuclear localization of the mammalian CST complex” (Communications Biology, 2021)",
  "biological_target": "T1, STN1-TEN1 complex (human, UniProt Q9H668 1-368; Q86WV5 1-123)",
  "T1 construct": "STN1, human, full length (flSTN1); TEN1, human, full length (flTEN1); source: E. coli ScarabXpress T7 lac, co-lysed, purified as a complex (Ni-NTA, amylose, HS and HQ)",
  "T1 sequence (looked up) 1": "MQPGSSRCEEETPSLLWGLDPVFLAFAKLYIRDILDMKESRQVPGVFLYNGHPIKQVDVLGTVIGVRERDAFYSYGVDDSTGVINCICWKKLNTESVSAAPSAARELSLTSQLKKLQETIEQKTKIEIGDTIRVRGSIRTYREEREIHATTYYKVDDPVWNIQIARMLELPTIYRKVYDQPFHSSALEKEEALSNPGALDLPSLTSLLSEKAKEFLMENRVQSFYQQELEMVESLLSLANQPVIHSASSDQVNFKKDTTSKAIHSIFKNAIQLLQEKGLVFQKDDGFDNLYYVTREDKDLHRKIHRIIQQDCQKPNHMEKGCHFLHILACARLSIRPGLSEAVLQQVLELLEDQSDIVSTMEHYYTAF",
  "T1 sequence (looked up) 2": "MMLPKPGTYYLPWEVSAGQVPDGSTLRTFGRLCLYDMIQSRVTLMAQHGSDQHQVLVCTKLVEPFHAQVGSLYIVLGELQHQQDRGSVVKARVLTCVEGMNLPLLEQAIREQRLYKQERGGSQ",
  "assay": "pull-down; purified STN1-TEN1 complex incubated with purified CTC1 (1002-end) at 4 °C; complex bound to an amylose column and analysed by SDS-PAGE",
  "settings": "both partners purified",
  "data": [
    {"binder": "CTC1 (1002-end) (domain or fragment, human, UniProt Q2NKJ3 1002-1217, looked up, CTC1, human, residues 1002-end; also called CTC1 residues 1002-end; source: E. coli ScarabXpress T7 lac, purified (Ni-NTA, HS and HQ)) TISIPLPHIYLAELLQGGQSPFQATASCHIVSVFSLQLFWVCAYCTSICRQGKCTRLGSTCPTQTAISQAIIRLLVEDGTAEAVVTCRNHHVAAALGLCPREWASLLDFVQVPGRVVLQFAGPGAQLESSARVDEPMTMFLWTLCTSPSVLRPIVLSFELERKPSKIVPLEPPRLQRFQCGELPFLTHVNPRLRLSCLSIRESEYSSSLGILASSC", "values": [
      {"measurement": "binding result", "result": "binds"}
    ]}
  ]
}
